Test results published in patent publication US20150259426A1 (Novartis, published 2015).
Like-named read-outs stand apart in the source and are kept apart here.

Tests used:
[1] = target: T1, DR5-61 (human DR5 residues 61 to 183, gp67DR5l61-s183-PH) (human); experiment: complex isolated by gel filtration, then crystallized
T1 construct: expressed in SF9 cells, cleaved with PreScission protease
T1 chain: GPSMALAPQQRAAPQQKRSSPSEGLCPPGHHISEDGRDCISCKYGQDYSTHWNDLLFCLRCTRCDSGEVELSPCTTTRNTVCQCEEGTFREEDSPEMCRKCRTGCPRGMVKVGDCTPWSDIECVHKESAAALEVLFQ

[2] = target: cynomolgus DR5 (construct used not stated) (cynomolgus); experiment: SPR kinetics (Biacore), cynomolgus DR5
[3] = target: T2, cell-bound human DR5 (Colo205 and other human cell lines) (human, UniProt O14763 56-440); experiment: FACS saturation binding, apparent KD, cell-bound human DR5
T2 construct: endogenous DR5 of the cell lines

[4] = target: T3, cell-bound cynomolgus DR5 (CHO-K1 cells transfected with the full length cynoDR5 gene) (cynomolgus); experiment: FACS saturation binding, apparent KD, cell-bound cynomolgus DR5
T3 construct: whole, on cells

[5] = target: T2, cell-bound human DR5 (Colo205 and other …); experiment: cell-based or functional assay
[6] = target: T2, cell-bound human DR5 (Colo205 and other …); experiment: cell-based or functional assay; remark: listed apart in the source
[7] = target: T4, short (182 amino acids) human DR5-Fc fusion protein (R&D Systems, catalogue #631-T2/CF) (human, UniProt O14763 56-210); experiment: SPR (Biacore), CM5 chip coated with human DR5-Fc, 1 to 100 nM NB construct
T4 construct: bought; not shown: Fc part of the bought fusion protein; not described

[8] = target: T5, cynomolgus DR5-Fc fusion protein (cyno DR5 amino acids 56 to 213 fused with human IgG1 Fc) (cynomolgus; human); experiment: SPR (Biacore), CM5 chip coated with cynomolgus DR5-Fc, 1 to 100 nM NB construct
[9] = target: cynomolgus DR5 (construct used not stated) (cynomolgus); experiment: SPR kinetics, cynomolgus DR5
[10] = target: T2, cell-bound human DR5 (Colo205 and other …); experiment: FACS, periplasmic extract on Colo205 cells, anti-myc detection
[11] = target: T5, cynomolgus DR5-Fc fusion protein (cyno …); experiment: ELISA, periplasmic extract, plate coated with cynomolgus DR5-Fc, anti-myc detection
[12] = target: T3, cell-bound cynomolgus DR5 (CHO-K1 cells …); experiment: FACS, periplasmic extract on CHO-K1 cells expressing cynomolgus DR5, anti-myc detection
[13] = target: T6, DR5-54 (human DR5 residues 54 to 183, gp67DR5a54-s183-PH) (human, UniProt O14763 54-183); experiment: complex isolated by gel filtration, then crystallized
T6 construct: expressed in SF9 cells, cleaved with PreScission protease; the complex with 11H6 was treated with trypsin before crystallization

[14] = target: T2, cell-bound human DR5 (Colo205 and other …); experiment: cell-based or functional assay; remark: listed apart in the source
[15] = target: T2, cell-bound human DR5 (Colo205 and other …); experiment: cell-based or functional assay; remark: listed apart in the source

B1: 4E6 hu, pAX111-4E6 (monomeric NB construct for crystallography) (VHH)
VHH: EVQLLESGGGLVQPGGSLRLSCAASGRTFGSIRVGWFRQAPGKGREFVSAINRNDGTTYYADSVKGRFTISRDNSKNTVYLQMNSLRPEDTAVYYCAAGLQYNRAADRVPVGAVYWGQGTLVTVSS
- binding result [1]: binds

B2: 4E6-hx (monovalent; humanized FR regions of 4E6-Hu with the CDR3 of 4E6), produced in E. coli (VHH)
VHH: EVQLLESGGGLVQPGGSLRLSCAASGRTFGSIRVGWFRQAPGKGREFVSAINRNDGTTYYADSVKGRFTISRDNSKNTVYLQMNSLRPEDTAVYYCAAGLQYNRSADRVPVGAVYWGQGTLVTVSS
- Kd [2]: 3.4 nM
- Kd [3]: 0.34 nM
- Kd [4]: 7.1 nM

B3: 10F1 tetra (tetravalent anti-DR5 NB construct) (other)
chain: EVQLVESGGGLVQPGGSLRLSCAASGFTFSRYWMYWVRQAPGKGLEWVSAINSGGGDTYYRDSVRGRFTISRDNFKNTLYLQMNSLKSEDTAVYYCAKAEGPPTFSLIRTMTVDPGAQGTQVTVSSGGGGSGGGGSGGGGSGGGGSGGGGSGGGGSGGGGSEVQLVESGGGLVQPGGSLRLSCAASGFTFSRYWMYWVRQAPGKGLEWVSAINSGGGDTYYRDSVRGRFTISRDNFKNTLYLQMNSLKSEDTAVYYCAKAEGPPTFSLIRTMTVDPGAQGTQVTVSSGGGGSGGGGSGGGGSGGGGSGGGGSGGGGSGGGGSEVQLVESGGGLVQPGGSLRLSCAASGFTFSRYWMYWVRQAPGKGLEWVSAINSGGGDTYYRDSVRGRFTISRDNFKNTLYLQMNSLKSEDTAVYYCAKAEGPPTFSLIRTMTVDPGAQGTQVTVSSGGGGSGGGGSGGGGSGGGGSGGGGSGGGGSGGGGSEVQLVESGGGLVQPGGSLRLSCAASGFTFSRYWMYWVRQAPGKGLEWVSAINSGGGDTYYRDSVRGRFTISRDNFKNTLYLQMNSLKSEDTAVYYCAKAEGPPTFSLIRTMTVDPGAQGTQVTVSS
notes: four VHH units in one chain joined by GlySer linkers; not shown: C-terminal c-myc/His6 tag from vector pAX51
- IC50, cell survival, 184A1 [5]: ≥ 20 nM
- IC50, cell survival, A549 [5]: ≥ 20 nM
- IC50, cell survival, ARPE-19 [5]: ≥ 20 nM
- IC50, cell survival, BxPC-3 [5]: 0.003 nM
- IC50, cell survival, Colo205 [5]: 0.002 nM
- IC50, cell survival, H226 [5]: 0.024 nM
- IC50, cell survival, H2052 [5]: 0.004 nM
- IC50, cell survival, H2122 [5]: 0.001 nM
- IC50, cell survival, HAAE-1 [5]: ≥ 20 nM
- IC50, cell survival, Huvec [5]: ≥ 20 nM
- IC50, cell survival, Jurkat [5]: 0.003 nM
- IC50, cell survival, M30 [5]: ≥ 20 nM
- IC50, cell survival, Malme-3 [5]: ≥ 20 nM
- IC50, cell survival, MiaPaCa-2 [5]: 0.028 nM
- IC50, cell survival, Molt4 [5]: 0.002 nM
- IC50, cell survival, Panc-1 [5]: 0.009 nM
- IC50, cell survival, WI-38 [5]: ≥ 20 nM
- EC50, caspase 3/7 in Colo205 tumor after a single dose in mice, indirect response model [6]: 0.365 ng/mg tissue
- Kd [7]: 0.0039 nM
- Kd [8]: 0.022 nM

B4: 11H6 (monomeric anti-DR5 NB construct) (VHH)
VHH: EVQLVESGGGLVQPGGSLRLSCAASGTFDKINNMGWYRQAPGKQRDLVAQITPGGITDYADSVKGRFTISRDNAKDTMYLQMNSLKPEDTAVYFCNAEILKRAYIDVYVNYWGQGTQVTVSS
notes: llama VHH; periplasmic extract or purified monovalent material from E. coli; also called 11H6 parent; wild type 11H6; not shown: C-terminal c-myc tag and (His)6 tag coded by the vector
- Kd [9]: 320 nM
- mean count fluorescence [10]: 723
- Kd [8]: 9200 nM
- ABS405 nm [11]: 0.133 ABS405 nm
- mean count fluorescence [12]: 292

B5: 11H6 hu, pAX100-11H6 (monomeric NB construct for crystallography) (VHH)
VHH: EVQLLESGGGLVQPGGSLRLSCAASGTFDKINNMGWYRQAPGKQRDLVAQITPGGITDYADSVKGRFTISRDNSKNTLYLQMNSLRPEDTAVYYCNAEILKRAYIDVYVNYWGQGTLVTVSS
notes: the complex with DR5-54 was treated with trypsin before crystallization
- binding result [13]: binds

B6: 11H6-hu (monovalent humanized variant of 11H6) (VHH)
VHH: EVQLLESGGGLVQPGGSLRLSCAASGTFDKINNMGWYRQAPGKQRDLVAQITPGGITDYADSVKGRFTISRDNSKNTLYLQMNSLRPEDTAVYYCNAEILKRAYIDVYVNYWGQGTLVTVSS
notes: purified monovalent material
- Kd [9]: 170 nM

B7: 11H6-hu tetra (11H6 hu tetramer) (VHH)
chain: EVQLLESGGGLVQPGGSLRLSCAASGTFDKINNMGWYRQAPGKQRDLVAQITPGGITDYADSVKGRFTISRDNSKNTLYLQMNSLRPEDTAVYYCNAEILKRAYIDVYVNYWGQGTLVTVSSGGGGSGGGGSGGGGSGGGGSGGGGSGGGGSGGGGSEVQLLESGGGLVQPGGSLRLSCAASGTFDKINNMGWYRQAPGKQRDLVAQITPGGITDYADSVKGRFTISRDNSKNTLYLQMNSLRPEDTAVYYCNAEILKRAYIDVYVNYWGQGTLVTVSSGGGGSGGGGSGGGGSGGGGSGGGGSGGGGSGGGGSEVQLLESGGGLVQPGGSLRLSCAASGTFDKINNMGWYRQAPGKQRDLVAQITPGGITDYADSVKGRFTISRDNSKNTLYLQMNSLRPEDTAVYYCNAEILKRAYIDVYVNYWGQGTLVTVSSGGGGSGGGGSGGGGSGGGGSGGGGSGGGGSGGGGSEVQLLESGGGLVQPGGSLRLSCAASGTFDKINNMGWYRQAPGKQRDLVAQITPGGITDYADSVKGRFTISRDNSKNTLYLQMNSLRPEDTAVYYCNAEILKRAYIDVYVNYWGQGTLVTVSS
- IC50, cell survival, Colo205 [14]: 0.02 nM
- IC50, cell survival, Jurkat [14]: 0.016 nM
- IC50, cell survival, A549 [15]: > 10 nM
- IC50, cell survival, BxPC-3 [15]: 0.0154 nM
- IC50, cell survival, Colo205 [15]: 0.0036 nM
- IC50, cell survival, H226 [15]: 0.172 nM
- IC50, cell survival, H2122 [15]: 0.0041 nM
- IC50, cell survival, Jurkat (72) [15]: 0.0007 nM
- IC50, cell survival, M30 [15]: > 10 nM
- IC50, cell survival, MiaPaCa-2 [15]: 0.0117 nM
- IC50, cell survival, Panc-1 [15]: 0.232 nM
- IC50, cell survival, T24 [15]: 0.0222 nM
